# Square brackets hold non-standard residues; d marks the D form. Ends that are not written are not given here. pY = N[C@@H](Cc1ccc(OP(=O)(O)O)cc1)C(=O)O
# Tests used:
# [1] = target: Recombinant catalytically inactive S195A thrombin mutant (UniProt P00734); assay: other fluorescence titration
# [2] = target: N-terminal 6xHis-tag derivative of human α-synuclein (6xHis-αSyn) (human) (UniProt P37840); assay: SPR
# [3] = target: Nα-fluoresceinated hirugen, [F]-hirugen; assay: other fluorescence titration
# [4] = target: Human plasma α-thrombin (αT) (human); assay: other fluorescence titration
molecule,measurement,setting,value
Hirugen (C-terminal peptide 54-65 of hirudin HV1),increase of [F]-hirugen fluorescence on displacement,[1],65%
βT-thrombin (βTT) (enzyme),fold decrease in affinity against S195A,[2],1.5 fold
Recombinant catalytically inactive S195A thrombin mutant (from UniProt P00734) (enzyme),Kd,[3],30 nM
same,Kd,[2],44 nM
VRPEHPAETE[pY]DSL[pY]PEDDL [Fibrinogen γ’-peptide (C-terminal peptide 408-427 of fibrinogen elongated γ-chain splice variant)],fold decrease in affinity with 20 μM αSyn against no αSyn,[4],3 fold

# Reference: article doi:10.1101/2021.03.28.437436
